Columns and labels:
TAP1 = molecular target: T1, TAP1 (Mus musculus, UniProt P21958); assay: Co-immunoprecipitation of bOVA with anti-TAP1; format: binding; details: DC2.4 cells incubated with bOVA
T1 construct: endogenous in cells; host or cells: DC2.4 mouse dendritic cell line
T1 sequence (P21958 1-724): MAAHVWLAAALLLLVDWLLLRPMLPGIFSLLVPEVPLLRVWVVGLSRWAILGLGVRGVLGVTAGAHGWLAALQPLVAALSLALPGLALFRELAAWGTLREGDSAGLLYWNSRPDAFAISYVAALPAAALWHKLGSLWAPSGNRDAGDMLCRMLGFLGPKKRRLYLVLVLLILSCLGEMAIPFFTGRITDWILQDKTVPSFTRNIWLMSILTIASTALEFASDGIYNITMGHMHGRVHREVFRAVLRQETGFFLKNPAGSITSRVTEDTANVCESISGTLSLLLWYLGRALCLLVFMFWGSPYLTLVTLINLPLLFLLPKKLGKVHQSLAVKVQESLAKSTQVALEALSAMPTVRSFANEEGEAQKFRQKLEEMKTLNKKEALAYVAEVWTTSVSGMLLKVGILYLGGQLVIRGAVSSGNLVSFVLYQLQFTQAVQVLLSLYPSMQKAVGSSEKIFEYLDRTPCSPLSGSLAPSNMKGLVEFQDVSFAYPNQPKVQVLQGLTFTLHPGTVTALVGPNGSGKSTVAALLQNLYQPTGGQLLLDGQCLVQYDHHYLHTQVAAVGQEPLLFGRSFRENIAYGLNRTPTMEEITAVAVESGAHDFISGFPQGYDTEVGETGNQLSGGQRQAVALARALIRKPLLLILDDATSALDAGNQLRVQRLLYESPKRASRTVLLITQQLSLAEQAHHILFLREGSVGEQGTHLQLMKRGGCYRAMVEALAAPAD
Experimental: (§1) 2×10^7 DC2.4 or BMDC cells were cultured for four hours in a medium containing 10 μM MG-132 in the presence of bOVA at 250 μg mL^−1. Cells were lysed in 20 mM HEPES pH7.6 containing 1% digitonin and protease inhibitors to collect biotin-labeled samples. The samples were cleared of impurities in advance using protein G sepharose (Amersham Pharmacia Biotech), and after incubation with antibodies for precipitation (anti-Sec61β, anti Sec61α, anti-VCP, anti-BiP, anti-PDI, anti-calreticulin, anti-TAP1, and anti-TAP2), the immunoprecipitates were collected using protein G. When chicken anti-CHIP antibody was used, immunoprecipitates were collected using a rabbit anti-IgY column (a person, MBL). The precipitated samples were analyzed by SDS-PAGE and Western blotting.

DC2.4 cells [1] = assay: Uptake of antigen into DC2.4 cells; format: cell-based, mouse; details: CHIP-knocked-down DC2.4 (C4 and C4F-1)
Source text: When CHIP-knocked-down DC2.4 cells (C4 and C4F-1) were produced to examine the polyubiquitination of bOVA when CHIP is knocked down, the uptake of bOVA into the CHIP-knocked-down DC2.4 cells was only about 70% that of uptake into the parental DC2.4 cells (FIGS. 4d and 4f). Despite this fact, polyubiquitination of bOVA was reduced to 34% in CHIP-knocked-down cells (FIG. 4f). The decrease in the amount of accumulated OVA was slowed down in CHIP-knocked-down cells (FIGS. 4d and 4e).
Next, DC2.4 cells were incubated for a set amount of time with OVA in the presence or absence of lactacystin (LC), and OVA taken up into the cells was measured. OVA taken up into cells in the presence or absence of Hsp90 was measured similarly.

VCP = molecular target: T2, VCP (Mus musculus, UniProt Q01853); assay: Co-immunoprecipitation of bOVA with anti-VCP; format: binding
T2 construct: endogenous in cells; host or cells: DC2.4 mouse dendritic cell line; bone marrow-derived dendritic cells
T2 sequence (Q01853 2-806 limits assumed): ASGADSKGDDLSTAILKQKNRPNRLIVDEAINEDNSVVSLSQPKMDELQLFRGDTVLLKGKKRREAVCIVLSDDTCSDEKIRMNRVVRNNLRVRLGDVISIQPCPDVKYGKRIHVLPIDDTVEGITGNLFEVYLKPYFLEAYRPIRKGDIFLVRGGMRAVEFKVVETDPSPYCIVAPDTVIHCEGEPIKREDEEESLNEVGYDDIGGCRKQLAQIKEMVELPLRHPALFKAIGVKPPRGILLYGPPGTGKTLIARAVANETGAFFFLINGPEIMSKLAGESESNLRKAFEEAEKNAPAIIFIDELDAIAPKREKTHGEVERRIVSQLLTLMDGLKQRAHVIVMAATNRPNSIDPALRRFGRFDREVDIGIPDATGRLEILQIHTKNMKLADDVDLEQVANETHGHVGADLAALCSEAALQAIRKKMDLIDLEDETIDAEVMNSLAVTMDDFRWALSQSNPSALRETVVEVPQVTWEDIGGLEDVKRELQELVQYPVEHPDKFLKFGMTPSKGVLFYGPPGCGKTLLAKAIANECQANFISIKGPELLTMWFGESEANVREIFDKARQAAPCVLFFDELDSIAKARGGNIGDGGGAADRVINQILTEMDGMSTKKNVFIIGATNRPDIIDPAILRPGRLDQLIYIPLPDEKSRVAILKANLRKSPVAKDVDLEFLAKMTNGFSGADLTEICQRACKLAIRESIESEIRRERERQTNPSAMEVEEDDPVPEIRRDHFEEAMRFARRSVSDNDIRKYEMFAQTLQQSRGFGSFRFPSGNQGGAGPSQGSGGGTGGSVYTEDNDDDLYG
Experimental: as §1

Sec61β = molecular target: T3, Sec61β (Mus musculus, UniProt Q9CQS8); assay: Co-immunoprecipitation of bOVA with anti-Sec61β; format: binding
T3 construct: endogenous in cells; host or cells: DC2.4 mouse dendritic cell line; bone marrow-derived dendritic cells
T3 sequence (Q9CQS8 2-96 limits assumed): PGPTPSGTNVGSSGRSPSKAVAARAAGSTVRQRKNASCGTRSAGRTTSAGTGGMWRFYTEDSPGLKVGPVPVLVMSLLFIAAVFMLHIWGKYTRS
T3 sequence (P61620 whole entry partner): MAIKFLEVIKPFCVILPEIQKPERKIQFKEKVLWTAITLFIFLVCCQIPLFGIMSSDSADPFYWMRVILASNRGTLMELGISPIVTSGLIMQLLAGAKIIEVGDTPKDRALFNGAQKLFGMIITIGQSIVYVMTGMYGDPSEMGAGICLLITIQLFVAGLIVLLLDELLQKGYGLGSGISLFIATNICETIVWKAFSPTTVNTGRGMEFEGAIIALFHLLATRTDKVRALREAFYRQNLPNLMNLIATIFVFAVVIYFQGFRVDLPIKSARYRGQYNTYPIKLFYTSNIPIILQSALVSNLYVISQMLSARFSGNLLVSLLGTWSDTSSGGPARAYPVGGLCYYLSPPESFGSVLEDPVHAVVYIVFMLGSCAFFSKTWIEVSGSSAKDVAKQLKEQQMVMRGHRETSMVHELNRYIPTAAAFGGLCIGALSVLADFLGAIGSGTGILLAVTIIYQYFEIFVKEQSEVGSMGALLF
T3 sequence (P60060 whole entry partner): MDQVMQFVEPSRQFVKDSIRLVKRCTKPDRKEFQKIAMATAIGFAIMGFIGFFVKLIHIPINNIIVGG
Experimental: as §1

CHIP = molecular target: T4, CHIP (Mus musculus, UniProt Q9WUD1); assay: Co-immunoprecipitation of bOVA with anti-CHIP; format: binding; details: DC2.4 cells incubated with bOVA
T4 construct: endogenous in cells; host or cells: DC2.4 mouse dendritic cell line
T4 sequence (Q9WUD1 1-304): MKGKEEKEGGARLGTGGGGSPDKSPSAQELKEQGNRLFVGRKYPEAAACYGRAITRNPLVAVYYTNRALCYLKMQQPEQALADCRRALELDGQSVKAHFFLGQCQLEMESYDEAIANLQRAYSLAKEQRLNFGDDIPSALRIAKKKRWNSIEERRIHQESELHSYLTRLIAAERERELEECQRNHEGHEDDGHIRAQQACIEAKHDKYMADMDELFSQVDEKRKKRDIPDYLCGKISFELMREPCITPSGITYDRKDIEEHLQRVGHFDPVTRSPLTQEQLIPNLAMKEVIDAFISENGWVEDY
Experimental: as §1

BiP = molecular target: T5, BiP (Mus musculus, UniProt P20029); assay: Co-immunoprecipitation of bOVA with anti-BiP; format: binding; details: DC2.4 cells incubated with bOVA
T5 construct: BiP, an endogenous ER protein, was detected in the same microsomal fraction; endogenous in cells; host or cells: DC2.4 mouse dendritic cell line
T5 sequence (P20029 20-655): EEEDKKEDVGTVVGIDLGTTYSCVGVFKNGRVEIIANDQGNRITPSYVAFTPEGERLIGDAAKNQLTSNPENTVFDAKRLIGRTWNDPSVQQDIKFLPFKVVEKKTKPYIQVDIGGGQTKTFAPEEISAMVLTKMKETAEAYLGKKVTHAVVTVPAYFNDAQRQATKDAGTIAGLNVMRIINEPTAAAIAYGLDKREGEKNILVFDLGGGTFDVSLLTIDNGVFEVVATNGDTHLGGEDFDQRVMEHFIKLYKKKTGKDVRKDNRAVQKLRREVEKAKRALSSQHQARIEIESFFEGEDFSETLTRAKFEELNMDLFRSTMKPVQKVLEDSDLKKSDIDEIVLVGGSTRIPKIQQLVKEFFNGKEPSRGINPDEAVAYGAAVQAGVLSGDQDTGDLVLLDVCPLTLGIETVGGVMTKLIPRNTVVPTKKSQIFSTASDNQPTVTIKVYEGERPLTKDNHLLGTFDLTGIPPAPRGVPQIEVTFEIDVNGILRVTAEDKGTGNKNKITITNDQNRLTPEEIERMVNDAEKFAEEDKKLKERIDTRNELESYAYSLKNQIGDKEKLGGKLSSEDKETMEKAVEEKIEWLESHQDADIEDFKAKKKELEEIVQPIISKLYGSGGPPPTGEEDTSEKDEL
Experimental: as §1

DC2.4 cells [2] = tested on: DC2.4 cells
Experimental: Intracellular localization of foreign antigens was examined by cell fractionation methods. Chicken ovalbumin (OVA) was used as an antigen model, and DC2.4 (haplotype H-2 Kb), a cultured cell line of mouse dendritic cells, was used as a model for dendritic cells. […] BMDCs with a haplotype of H-2 Kb, the same as that of DC2.4, were used as the control. BMDCs were induced from the bone marrow cells of C57BL/6 mice (SLC) in RPMI-1640 supplemented with 5% FCS using 5 ng/mL GM-CSF (MBL), and those cells purified by magnetic beads after five days of culturing were used.
DC2.4 cells made to take up bOVA antigens were suspended in 10 mM Tris-HCl (pH7.4) containing 250 mM sucrose, this was homogenized using glass beads, centrifuged for 30 minutes at 250,000×g, and then fractionated. The supernatant was used as the soluble fraction; the precipitates were suspended in the same buffer as described above and used as the microsomal fraction. A fixed amount was incubated in the presence or absence of 1% TritonX-100, and together with or without 100 μg mL^−1 trypsin. Before collecting bOVA, soybean trypsin inhibitor (Sigma) was added at 500 μg mL^−1.

Sec61α = molecular target: T6, Sec61α (Mus musculus, UniProt P61620); assay: Co-immunoprecipitation of bOVA with anti-Sec61α; format: binding; details: DC2.4 cells incubated with bOVA
T6 construct: endogenous in cells; host or cells: DC2.4 mouse dendritic cell line
T6 sequence (P61620 whole entry): as the sequence (P61620 whole entry partner) above
T6 sequence (Q9CQS8 2-96 partner limits assumed): as the sequence (Q9CQS8 2-96 limits assumed) above
T6 sequence (P60060 whole entry partner): as the sequence (P60060 whole entry partner) above
Experimental: as §1

PDI = molecular target: T7, PDI (Mus musculus, UniProt P09103); assay: Co-immunoprecipitation of bOVA with anti-PDI; format: binding; details: DC2.4 cells incubated with bOVA
T7 construct: Three types of ER resident proteins; endogenous in cells; host or cells: DC2.4 mouse dendritic cell line
T7 sequence (P09103 20-509): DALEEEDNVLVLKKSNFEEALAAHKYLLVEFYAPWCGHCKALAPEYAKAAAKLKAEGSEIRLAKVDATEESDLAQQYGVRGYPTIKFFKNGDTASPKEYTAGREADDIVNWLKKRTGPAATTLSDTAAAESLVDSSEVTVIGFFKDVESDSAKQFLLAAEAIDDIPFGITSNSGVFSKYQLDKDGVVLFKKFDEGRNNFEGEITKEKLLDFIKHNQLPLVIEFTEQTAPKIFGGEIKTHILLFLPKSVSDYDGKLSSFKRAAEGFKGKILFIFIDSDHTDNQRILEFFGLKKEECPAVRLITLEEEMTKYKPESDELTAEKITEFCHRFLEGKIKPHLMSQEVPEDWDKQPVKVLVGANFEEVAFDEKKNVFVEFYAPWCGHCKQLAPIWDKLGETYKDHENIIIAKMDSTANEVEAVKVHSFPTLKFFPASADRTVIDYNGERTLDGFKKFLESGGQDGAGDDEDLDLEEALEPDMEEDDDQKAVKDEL
Experimental: as §1

[3] = DC2.4 cells incubated with bOVA

B1: bOVA: biotin-labeled OVA antigen (protein)
chain: GSIGAASMEFCFDVFKELKVHHANENIFYCPIAIMSALAMVYLGAKDSTRTQINKVVRFDKLPGFGDSIEAQCGTSVNVHSSLRDILNQITKPNDVYSFSLASRLYAEERYPILPEYLQCVKELYRGGLEPINFQTAADQARELINSWVESQTNGIIRNVLQPSSVDSQTAMVLVNAIVFKGLWEKAFKDEDTQAMPFRVTEQESKPVQMMYQIGLFRVASMASEKMKILELPFASGTMSMLVLLPDEVSGLEQLESIINFEKLTEWTSSNVMEERKIKVYLPRMKMEEKYNLTSVLMAMGITDVFSSSANLSGISSAESLKISQAVHAAHAEINEAGREVVGSAEAGVDAASVSEEFRADHPFLFCIKHIATNAVLFFGRCVSP
- interaction with TAP1 (co-immunoprecipitation) (TAP1): does not interact
- uptake of bOVA into CHIP-knocked-down cells relative to parental DC2.4 cells (DC2.4 cells [1]): about 70%
- interaction with VCP (co-immunoprecipitation) (VCP; BMDCs): interacts
- interaction with VCP (co-immunoprecipitation) (VCP; [3]): interacts
- interaction with Sec61β (co-immunoprecipitation) (Sec61β; BMDCs): interacts
- interaction with Sec61β (co-immunoprecipitation) (Sec61β; [3]): interacts
- interaction with CHIP (co-immunoprecipitation) (CHIP): interacts
- interaction with BiP (co-immunoprecipitation) (BiP): interacts
- bOVA taken up by cells recovered as trypsin-resistant bOVA from the microsomal fraction (DC2.4 cells [2]): ≥ 70%
- interaction with Sec61α (co-immunoprecipitation) (Sec61α): interacts
- interaction with PDI (co-immunoprecipitation) (PDI): interacts

— patent publication US20080064048A1, “Methods for Selecting Proteins that are Readily Presented as Antigens on Dendritic Cells” (Medical and Biological Laboratories, Co., Ltd., priority 2004, published 2008)
